Assays:
[1] = target: AcrE2
[2] = target: AcrIIC2Nme
[3] = target: AcrIIC3Nme
[4] = target: AcrIIC4Hpa
[5] = target: AcrIIC1Nme
[6] = target: AcrIIC5Smu

B1: Nme1Cas9 (Neisseria meningitidis strain 8013 Cas9), recombinant purified protein (protein)
chain: MAAFKPNSINYILGLDIGIASVGWAMVEIDEEENPIRLIDLGVRVFERAEVPKTGDSLAMARRLARSVRRLTRRRAHRLLRTRRLLKREGVLQAANFDENGLIKSLPNTPWQLRAAALDRKLTPLEWSAVLLHLIKHRGYLSQRKNEGETADKELGALLKGVAGNAHALQTGDFRTPAELALNKFEKESGHIRNQRSDYSHTFSRKDLQAELILLFEKQKEFGNPHVSGGLKEGIETLLMTQRPALSGDAVQKMLGHCTFEPAEPKAAKNTYTAERFIWLTKLNNLRILEQGSERPLTDTERATLMDEPYRKSKLTYAQARKLLGLEDTAFFKGLRYGKDNAEASTLMEMKAYHAISRALEKEGLKDKKSPLNLSPELQDEIGTAFSLFKTDEDITGRLKDRIQPEILEALLKHISFDKFVQISLKALRRIVPLMEQGKRYDEACAEIYGDHYGKKNTEEKIYLPPIPADEIRNPVVLRALSQARKVINGVVRRYGSPARIHIETAREVGKSFKDRKEIEKRQEENRKDREKAAAKFREYFPNFVGEPKSKDILKLRLYEQQHGKCLYSGKEINLGRLNEKGYVEIDHALPFSRTWDDSFNNKVLVLGSENQNKGNQTPYEYFNGKDNSREWQEFKARVETSRFPRSKKQRILLQKFDEDGFKERNLNDTRYVNRFLCQFVADRMRLTGKGKKRVFASNGQITNLLRGFWGLRKVRAENDRHHALDAVVVACSTVAMQQKITRFVRYKEMNAFDGKTIDKETGEVLHQKTHFPQPWEFFAQEVMIRVFGKPDGKPEFEEADTLEKLRTLLAEKLSSRPEAVHEYVTPLFVSRAPNRKMSGQGHMETVKSAKRLDEGVSVLRVPLTQLKLKDLEKMVNREREPKLYEALKARLEAHKDDPAKAFAEPFYKYDKAGNRTQQVKAVRVEQVQKTGVWVRNHNGIADNATMVRVDVFEKGDKYYLVPIYSWQVAKGILPDRAVVQGKDEEDWQLIDDSFNFKFSLHPNDLVEVITKKARMFGYFASCHRGTGNINIRIHDLDHKIGKNGILEGIGVKTALSFQKYQIDELGKEIRPCRLKKRPPVR
B1 was tested, and the “in vitro cleavage of a target DNA by Cas9-sgRNA (10:1 Acr:Cas9 molar ratio)” value (“in vitro cleavage … (10:1 Acr:Cas9 molar ratio)” for short) [1] was “AcrE2 failed to do so”, the “in vitro cleavage … (10:1 Acr:Cas9 molar ratio)” value [2] was “all Arc families inhibited Nme1Cas9” and the “in vitro cleavage … (10:1 Acr:Cas9 molar ratio)” value [3] was “all Arc families inhibited Nme1Cas9”. The “in vitro cleavage … (10:1 Acr:Cas9 molar ratio)” value [4] was “all Arc families inhibited Nme1Cas9”, the “in vitro cleavage … (10:1 Acr:Cas9 molar ratio)” value [5] was “all Arc families inhibited Nme1Cas9” and the “in vitro cleavage … (10:1 Acr:Cas9 molar ratio)” value [6] was “all Arc families inhibited Nme1Cas9”.

From patent US20250197889
